Results from PMC10849882.

Tests used:
[1] = biological target: IMPDH1(595)-S477D (human); assay: cryo-EM structure
[2] = biological target: IMPDH1(595)-S477D (human); assay: negative stain EM

stoichiometry N [1]: 8
stoichiometry N [2]: 8
Substance: IMPDH1(595)-S477D (enzyme)
